Results on three molecules are retold here after PMC10925351 (bioRxiv, 2025).

Common to all, as to experiment: reconstitution of a complex by mixing purified proteins
Experiment [1] concerns the target Clb2-Cdk1 complex (wild-type Clb2) (S. cerevisiae, UniProt P24869;P00546, phosphothreonine at T169 (by Cak1)).
Experiment [2] concerns the target T1, Clb2 (wild-type), 6xHis-tagged (S. cerevisiae, UniProt P24869 1-491).
T1 sequence: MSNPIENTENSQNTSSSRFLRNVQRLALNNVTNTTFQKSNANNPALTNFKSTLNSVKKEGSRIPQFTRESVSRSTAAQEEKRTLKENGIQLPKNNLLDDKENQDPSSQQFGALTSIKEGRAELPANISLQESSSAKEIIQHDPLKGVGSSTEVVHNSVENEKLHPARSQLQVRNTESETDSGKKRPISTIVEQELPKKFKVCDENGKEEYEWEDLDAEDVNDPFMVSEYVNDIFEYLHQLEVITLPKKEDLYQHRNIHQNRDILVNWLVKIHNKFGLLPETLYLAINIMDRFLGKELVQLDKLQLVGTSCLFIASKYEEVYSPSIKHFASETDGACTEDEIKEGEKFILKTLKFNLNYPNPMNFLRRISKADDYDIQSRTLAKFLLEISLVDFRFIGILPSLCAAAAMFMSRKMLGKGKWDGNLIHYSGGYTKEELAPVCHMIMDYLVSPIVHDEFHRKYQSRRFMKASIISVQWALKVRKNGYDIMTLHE

For experiment [3], the target named is T2, Clb2-pp mutant (R366A, R379A, K383A), 6xHis-tagged (S. cerevisiae, UniProt P24869 1-491, R366A | R379A | K383A).
T2 sequence: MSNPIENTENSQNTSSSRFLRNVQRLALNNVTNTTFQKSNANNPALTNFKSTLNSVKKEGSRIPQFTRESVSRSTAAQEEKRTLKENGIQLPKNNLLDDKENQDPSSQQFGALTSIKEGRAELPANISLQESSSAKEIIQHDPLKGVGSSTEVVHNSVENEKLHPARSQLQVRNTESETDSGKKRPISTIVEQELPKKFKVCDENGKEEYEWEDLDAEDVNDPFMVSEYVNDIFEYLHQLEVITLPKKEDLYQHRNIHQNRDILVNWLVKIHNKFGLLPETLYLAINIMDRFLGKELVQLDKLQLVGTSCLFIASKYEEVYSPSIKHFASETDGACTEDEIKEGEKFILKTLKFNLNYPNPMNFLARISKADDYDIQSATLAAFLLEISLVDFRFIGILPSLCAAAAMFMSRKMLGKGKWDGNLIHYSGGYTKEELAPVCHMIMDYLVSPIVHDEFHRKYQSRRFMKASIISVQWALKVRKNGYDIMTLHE

Chain of Clb2-Cdk1 complex (wild-type Clb2) (P00546 whole entry, one chain of several): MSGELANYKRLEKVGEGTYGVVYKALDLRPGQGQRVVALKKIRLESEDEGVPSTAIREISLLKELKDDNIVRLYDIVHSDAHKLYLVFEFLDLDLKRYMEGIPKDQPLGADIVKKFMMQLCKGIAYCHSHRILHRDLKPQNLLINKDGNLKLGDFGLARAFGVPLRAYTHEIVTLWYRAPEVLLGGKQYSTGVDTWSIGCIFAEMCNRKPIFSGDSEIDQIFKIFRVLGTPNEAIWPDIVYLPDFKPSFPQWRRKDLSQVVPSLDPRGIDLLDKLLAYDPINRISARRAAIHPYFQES

B1: Cks1 (wild-type) (natural protein)
chain: MYHHYHAFQGRKLTDQERARVLEFQDSIHYSPRYSDDNYEYRHVMLPKAMLKVIPSDYFNSEVGTLRILTEDEWRGLGITQSLGWEHYECHAPEPHILLFKRPLNYEAELRAATAAAQQQQQQQQQQQQQQQQHQTQSISNDMQVPPQIS
For B1, in experiment [1], the binding result is on record as “binds”.

B2: Cks1 mutant (R33E, S82E, R102A) (natural protein)
chain: MYHHYHAFQGRKLTDQERARVLEFQDSIHYSPEYSDDNYEYRHVMLPKAMLKVIPSDYFNSEVGTLRILTEDEWRGLGITQELGWEHYECHAPEPHILLFKAPLNYEAELRAATAAAQQQQQQQQQQQQQQQQHQTQSISNDMQVPPQIS
For B2, the binding result in experiment [1] is given as “binds”.

B3: Cdk1 (Cdc28), T169-phosphorylated, from a GST-TEV-Cdk1 fusion (enzyme)
chain: not shown
modifications: phosphothreonine at T169 (by Cak1)
In the case of B3, the binding result in experiment [2] and in experiment [3] was “binds” throughout.
